The source of these data is PMC4560413, “Ethyl Pyruvate Emerges as a Safe and Fast Acting Agent against Trypanosoma brucei by Targeting Pyruvate Kinase Activity” (PLoS ONE, 2015).

The data set has as its system C=C(OP(=O)(O)O)C(=O)O. Put plainly: purified protein. The following applies: Mg2+.

pyruvate kinase (PK-1 from rabbit muscle) (Oryctolagus cuniculus), sequence (chain, as listed by the source): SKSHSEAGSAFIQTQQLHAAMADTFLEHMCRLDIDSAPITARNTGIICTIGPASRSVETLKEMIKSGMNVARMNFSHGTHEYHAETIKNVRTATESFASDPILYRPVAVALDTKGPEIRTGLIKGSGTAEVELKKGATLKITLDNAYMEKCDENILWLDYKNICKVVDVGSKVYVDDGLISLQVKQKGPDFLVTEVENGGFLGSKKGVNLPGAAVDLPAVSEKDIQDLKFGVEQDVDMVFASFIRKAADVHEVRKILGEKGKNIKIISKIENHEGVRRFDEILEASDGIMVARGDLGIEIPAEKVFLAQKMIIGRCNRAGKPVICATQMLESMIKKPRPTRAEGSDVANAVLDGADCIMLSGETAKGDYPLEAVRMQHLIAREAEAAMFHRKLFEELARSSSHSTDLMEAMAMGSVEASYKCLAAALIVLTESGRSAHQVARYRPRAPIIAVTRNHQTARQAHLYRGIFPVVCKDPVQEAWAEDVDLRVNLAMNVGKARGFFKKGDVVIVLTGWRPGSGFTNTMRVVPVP

For orientation: Km means the substrate concentration at which the rate is half of its maximum. “pyruvate kinase (PK-1 from rabbit muscle) (Oryctolagus cuniculus)”: the Km came out at 220 ± 20 µM.
